Measured values as given in patent US20250382354A1.
Where two headings read alike, the source gives them in different places.

How the values were obtained:
[1] = target: SARS-CoV-2 S ectodomain, ancestral (S-2P) (SARS-CoV-2) (UniProt P0DTC2)
[2] = target: SARS-CoV-2 S Ancestral (S-2P ectodomain) (SARS-CoV-2 (ancestral)) (UniProt P0DTC2); experiment: protein ELISA
[3] = target: SARS-CoV-2 S ectodomain, ancestral (S-2P) (SARS-CoV-2) (UniProt P0DTC2); remark: listed apart in the source
[4] = target: SARS-CoV-2 S ectodomain, ancestral (S-2P) (SARS-CoV-2) (UniProt P0DTC2); experiment: ELISA on coated S

Row | Substance | IC50 (read off the curve) [1] [µg/mL] | EC50 [2] [µg/mL] | IC50 (read off the curve) [3] [µg/mL] | EC50 [4] [µg/mL]
1 | C121 (antibody) | 1 | 0.0187 | 0.3 | 
2 | S2P6 (antibody) |  |  |  | 0.0379
3 | CV3-25 (antibody) |  |  |  | 0.0139
